Numbering of substitutions follows the chain as printed.
B1: 1H12 (antibody, V domains shown)
VH: QVQLVQSGAEVKKPGASVKVSCKASGYTFTGYYMHWVRQAPGQGLEWVGWFNPNSGGTNCAQKFQGRVTMTRDTSISTAYMELSRLRSDDTAVYYCAREAVESYYYGLDVWGQGTTVTVSS
VL: QSVVTQPPSASGTPGQRITISCSGSSSNIGSNYVYWYHQLPGSAPNLLIYRNNQRPSGVPDRFSGSKSGTSASLAISGLRSEDEADYFCAVWDDSLRGVVFGGGTKLTVL
notes: fully human XenoMouse hybridoma antibody; tested as hybridoma supernatant and as purified antibody; also called MAb 1H12
B2: 1A12 (antibody, V domains shown)
VH: QVYLVESGGGVVQPGRSLRLSCAASGFTFSSYGMHWVRQAPGKGLEWVAVIWYDGSNEYYADSVKGRFTISRDNSKNTLYLQMNSLRAEDTAVYYCARDLYYYGSGSPFDYWGQGTLVTVSS
VL: EIVMTQSPATLSVSPGERATLSCRASQSVSSNLAWYQQKPGQAPRLLIFGVSIRATGIPARFSGSGSGTEFTLTISSLQSEDFAVYYCQQYNDWPRPGFGGGTKVEIK
notes: fully human XenoMouse hybridoma antibody; tested as hybridoma supernatant and as purified antibody; also called MAb 1A12
B3: 1G12 (antibody, V domains shown)
VH: B2 VH with Y3Q, S31T, E58K, K65N, A88G
VL: B2 VL with A19V, F49Y, N92D, D93N
notes: fully human XenoMouse hybridoma antibody; tested as hybridoma supernatant and as purified antibody; also called MAb 1G12
B4: 1H10 (antibody, V domains shown)
VH: B2 VH with Y3Q, Y53N, Y111D
VL: B2 VL with A9G, S30G, I58V
notes: fully human XenoMouse hybridoma antibody; tested as hybridoma supernatant and as purified antibody; also called MAb 1H10
B5: 4B6 (antibody, V domains shown)
VH: B2 VH with Y3Q, S31T
VL: B2 VL with V51I, K104R
notes: fully human XenoMouse hybridoma antibody; tested as hybridoma supernatant and as purified antibody; also called MAb 4B6
B6: 1A5 (antibody, V domains shown)
VH: EVQVVESGGDLIQPGGSLRLSCVASGFTVSSNYMNWVRQAPGKGLEWVSVIYSGGNTYYADSVKGRFTISRDNSKNTLYLQMNSLRAEDTAVYYCARDSSVVVGLGYFDLWGRGTLVTVSS
VL: SYELTQPPSVSVSPGQTASITCSGDKLGANYASWYQQKPGQSPVLVIFQDTKRPSGIPERFSGSNSGNTATLTISGTQAMDEADYYCQAWDFSTVIFGGGTKLTVL
notes: fully human XenoMouse hybridoma antibody; tested as hybridoma supernatant and as purified antibody; also called MAb 1A5
B7: 1C8 (antibody, V domains shown)
VH: B6 VH with V4L, D10G, V23A, A24V, Y33C, N56K, Y58A, Y79C, V101M
VL: B6 VL with Q16L, A29Y, N30K, F48Y, T51I, F92S, I96V
notes: fully human XenoMouse hybridoma antibody; tested as hybridoma supernatant and as purified antibody; also called MAb 1C8
B8: 1H8 (antibody, V domains shown)
VH: QVQLQESGPGLVKPSETLSLTCTVSGGSISSYYWTWIRQPPGKGLEWIGYIYYSGSTNYNPSLKSRVTISVDTSKNQFSLKLSSVTAADTAVYYCARDRLLYGMDVWGQGTTVTVSS
VL: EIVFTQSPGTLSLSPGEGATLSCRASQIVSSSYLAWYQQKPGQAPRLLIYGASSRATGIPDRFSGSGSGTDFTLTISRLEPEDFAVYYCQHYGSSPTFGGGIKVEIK
notes: fully human XenoMouse hybridoma antibody; also called MAb 1H8
B9: 1F4 (antibody, V domains shown)
VH: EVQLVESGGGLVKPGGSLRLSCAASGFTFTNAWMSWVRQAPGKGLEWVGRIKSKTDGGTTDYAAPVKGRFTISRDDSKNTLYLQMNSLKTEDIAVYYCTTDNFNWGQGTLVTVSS
VL: EIVMTQSPATLSVSPGERATLSCRASQSISSNLAWYQQKPGQAPRLLIYGASTRATGIPARFSGSGSGTEFTLTISSLQSEDFAVYFCQQYHSWWTFGQGTKVEIQ
notes: fully human XenoMouse hybridoma antibody; tested as hybridoma supernatant and as purified antibody; also called MAb 1F4

Target: T1, full length human Shh expressed on the cell surface (human, UniProt Q15465 24-462)
T1 construct: whole, on cells; also called native human Shh; Shh-FL
Experiment: FMAT, hybridoma supernatant on 293T cells transiently expressing human Shh
Procedure: Cells were maintained at 1×10⁶ cells/ml overnight at 37° C., 5% CO₂. […] Supernatants were added to each well (10 μl/well) and incubated 1.5 hrs at RT. […] Plates were read on the FMAT 8100 HTS system from Applied Biosystems. Total signal (FL1×count) is defined as the number of positive cells in a well (count) multiplied by the average fluorescence intensity of the positive cells (FL1).

| Binder | FL1 X COUNT |
| --- | --- |
| B1 | 1.11e+06 |
| B2 | 696000 |
| B3 | 327000 |
| B4 | 370000 |
| B5 | 625000 |
| B6 | 304000 |
| B7 | 319000 |
| B8 | 89600 |
| B9 | 110000 |

Target: T2, Shh-N in conditioned medium (human, UniProt Q15465 24-197, N-terminal palmitoyl modification; lacks the C-terminal cholesterol moiety)
Experiment: cell-based or functional assay

| Binder | IC50, inhibition of osteoblast differentiation (alkaline phosphatase) of C3H10T1/2 cells [nM] |
| --- | --- |
| B2 | 4.6 |
| B3 | 7.1 |
| B4 | 4.4 |
| B5 | 3.3 |
| B6 | 4.8 |
| B8 | 5.7 |

Target: T3, biotinylated human Shh (human, UniProt Q15465 24-197, limits assumed, biotinylated)
T3 construct: also called biotin-Shh; immobilized biotinylated Shh
Experiment: ELISA, hybridoma supernatant on neutravidin-captured biotin-Shh
Procedure: After blocking with 1% milk in PBS, 40 μl of 500 ng/ml biotinylated Shh in 1×PBS, 1% milk (wt/vol) was added to each well and incubated for 1 hr at RT. Hybridoma supernatants (10 μl/well) were added to 40 μl of 1% milk, 0.05% Tween-20 in PBS per well and incubated 1 hr at RT. Following washing and incubation with secondary antibody (100 ng/ml goat-anti-human IgG Fc HRP), wells were developed with TMB substrate and subsequently quenched with 1 N HCl.

| Binder | OD450 [OD450] |
| --- | --- |
| B1 | 3.73 |
| B2 | 4.09 |
| B3 | 2.49 |
| B4 | 3.46 |
| B5 | 5.14 |
| B6 | 6 |
| B8 | 4.04 |
| B9 | 6 |

Target: T1, full length human Shh expressed on the …
Experiment: cell-based or functional assay

| Binder | % Inh of Gli1 reporter, Co-Culture N = 1 [%] | % Inh of Gli1 reporter, Co-Culture N = 2 [%] |
| --- | --- | --- |
| B1 | 48 | 19 |
| B2 | 40 | 32 |
| B3 | 30 | 35 |
| B4 | 37 | 23 |
| B5 | 31 | 34 |
| B6 | 20 | 27 |
| B7 | 32 | 24 |
| B8 | 38 | 42 |
| B9 | 31 | 47 |

Target: T2, Shh-N in conditioned medium
Experiment: cell-based or functional assay
Remark: another data set of the same source

| Binder | % Inh of Gli1 reporter, CM N = 1 [%] | % Inh of Gli1 reporter, CM N = 3 [%] |
| --- | --- | --- |
| B1 | 38 | 40 |
| B2 | 25 | 43 |
| B3 | 32 | 40 |
| B4 | 43 | 28 |
| B5 | 46 | 22 |
| B6 | 73 | 62 |
| B7 | 47 | 43 |
| B8 | 52 | 42 |
| B9 | 21 | 9 |

Target: T1, full length human Shh expressed on the …
Experiment: flow cytometry, exhaust hybridoma supernatant 1:10, 293T cells transiently expressing human Shh
Procedure: (§1) Finally, binding of antibody in exhaust hybridoma supernatants to native Shh was assessed using flow cytometry. […] Transfected or parental cells were seeded into the plates with V-bottom wells (50,000 cells/well). Exhaust supernatants (50 μl of a 1:10 dilution) were added to each well and incubated at 4° C. for 1 hr. […] It was added to a concentration of 2 μg/ml in a volume of 50 μl. Cells were washed and 50 μl of a 2 μg/ml solution of secondary antibody (Cy5-labeled goat-anti-human IgG or Cy5-labeled goat-anti-rabbit IgG) were added to each well. 7AAD was added to a concentration of 5 μg/ml and the mixture was incubated for 30 min at RT. The mean fluorescence for each sample was then determined using flow cytometry.

| Binder | X Geo Mean (Transients) |
| --- | --- |
| B1 | 34.4 |
| B2 | 290 |
| B3 | 8.3 |
| B4 | 150 |
| B5 | 196 |
| B6 | 265 |
| B7 | 118 |
| B8 | 165 |
| B9 | 219 |

Target: T1, full length human Shh expressed on the …
Experiment: cell-based or functional assay
Remark: another data set of the same source

| Binder | % Inhibition of Gli1 reporter, Co-Culture N = 1, 20 µg/ml [%] | % Inhibition of Gli1 reporter, Co-Culture N = 2, 20 µg/ml [%] | % Inhibition of Gli1 reporter, Co-Culture N = 3, 20 µg/ml [%] |
| --- | --- | --- | --- |
| B1 | 8 | 15 | 13 |
| B2 | 58 | 59 | 22 |
| B3 | 35 | 43 | 28 |
| B4 | 47 | 68 | 4 |
| B5 | 44 | 76 | 22 |
| B6 | 25 | 20 | 20 |
| B7 | 26 | 10 | 23 |
| B8 | 32 | 25 | 36 |
| B9 | 31 | 18 | 28 |

Target: T2, Shh-N in conditioned medium
Experiment: cell-based or functional assay
Remark: another data set of the same source

| Binder | % Inhibition of Gli1 reporter, Conditioned Media N = 1, 20 µg/ml [%] | % Inhibition of Gli1 reporter, Conditioned Media N = 2, 20 µg/ml [%] |
| --- | --- | --- |
| B1 | -5 | -5 |
| B2 | 18 | 57 |
| B3 | 23 | 44 |
| B4 | 48 | 24 |
| B5 | 73 | 43 |
| B6 | 35 | 34 |
| B7 | -1 | 8 |
| B8 | 34 | 48 |
| B9 | 2 | 16 |

Target: T1, full length human Shh expressed on the …
Experiment: flow cytometry, transfected against parental 293T cells
Procedure: as §1

| Binder | ratio |
| --- | --- |
| B1 | 9.1 |
| B2 | 78.1 |
| B3 | 2.2 |
| B4 | 40.9 |
| B5 | 50.2 |
| B6 | 70.5 |
| B7 | 33.3 |
| B8 | 44.1 |
| B9 | 63.8 |
